Target: GST-Pol32 (Saccharomyces cerevisiae (budding …, UniProt P47110 1-350))
Test: EMSA

Sequence of GST-Pol32 (Saccharomyces cerevisiae (P47110 whole entry): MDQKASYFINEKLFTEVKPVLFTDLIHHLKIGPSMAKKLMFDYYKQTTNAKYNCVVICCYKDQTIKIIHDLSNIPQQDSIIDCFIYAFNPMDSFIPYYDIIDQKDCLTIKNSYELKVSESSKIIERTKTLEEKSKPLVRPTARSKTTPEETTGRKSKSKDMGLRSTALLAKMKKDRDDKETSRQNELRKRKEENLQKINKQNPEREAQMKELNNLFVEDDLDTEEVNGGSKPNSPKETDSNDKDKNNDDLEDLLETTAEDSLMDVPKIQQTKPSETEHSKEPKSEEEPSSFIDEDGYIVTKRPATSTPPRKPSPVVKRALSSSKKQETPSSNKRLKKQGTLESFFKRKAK

B1: 58bp DNA (dsDNA)
DNA 1: ATACATTTTATGACTGGAAACTTTTTTGTACAACACTCCAATAAACATTTTGATTTTA
DNA 2: TAAAATCAAAATGTTTATTGGAGTGTTGTACAAAAAAGTTTCCAGTCATAAAATGTAT
B1: binds.
